Assay results taken from patent US20170158755A1 (PROTHENA BIOSCIENCES, published 2017).
Changes are numbered by the printed parent chain.

B1: mouse monoclonal antibody 5B5 (antibody, V domains shown)
VH: QVQLQQPGAELVKPGASVKLSCKASGYTFTSYWMHWVKQRPGRGLEWIGRIDPNSGGTKHNEKFKSKATLTVDKPSSTAYMQLSSLTSEDSAVYYCAGSPSYYDYALHYAMDYWGQGTSVTVSS
VL: not shown
B2: humanized 19C12 antibody H2L3 (antibody, V domains shown)
VH: QVQLQQSGAELVKPGASVKVSCKASGYAFSTYWMNWVRQAPGQGLEWIGQIYPGDGDTNYNGKFKGRVTITADKSTSTAYMELSSLRSEDTAVYFCARSDGYYDYWGQGTTVTVSS
VL: NIVLTQSPASLAVSLGERATISCRASESVDSYGTSFMHWYQQKPGQPPKLLICLASSLESGVPARFSGSGSRTDFTLTIDPVEAEDAATYYCQQNNEDPPTFGAGTKLEIKR
notes: Intact humanized IgG (human Fc); also called VHv2/VLv3; Hu19C12 H2L3
B3: humanized 19C12 antibody H2L4 (antibody, V domains shown)
VH: B2 VH
VL: B2 VL with C53S, R72G, D80S
notes: Intact humanized IgG (human Fc); also called VHv2/VLv4
B4: humanized 19C12 antibody H2L6 (antibody, V domains shown)
VH: B2 VH
VL: B2 VL with N1D, C53S, R72G, D80S
notes: Intact humanized IgG (human Fc); also called VHv2/VLv6
B5: humanized 19C12 antibody H3L6 (antibody, V domains shown)
VH: B2 VH with Q1E
VL: B2 VL with N1D, C53S, R72G, D80S
notes: Intact humanized IgG (human Fc); also called VHv3/VLv6

How the values were obtained:
[1] = target: T1, LGde2, human LAMA4 G domain with LG2 deleted, displayed on 293 cells (human, UniProt Q16363 830-1821, limits assumed); assay: flow cytometry on 293 cells displaying LAMA4 G-domain variants; % binding
T1 construct: pDisplay construct on 293 cells; vector tags and anchor not written here; also called LGde2 (LG13)
T1 sequence: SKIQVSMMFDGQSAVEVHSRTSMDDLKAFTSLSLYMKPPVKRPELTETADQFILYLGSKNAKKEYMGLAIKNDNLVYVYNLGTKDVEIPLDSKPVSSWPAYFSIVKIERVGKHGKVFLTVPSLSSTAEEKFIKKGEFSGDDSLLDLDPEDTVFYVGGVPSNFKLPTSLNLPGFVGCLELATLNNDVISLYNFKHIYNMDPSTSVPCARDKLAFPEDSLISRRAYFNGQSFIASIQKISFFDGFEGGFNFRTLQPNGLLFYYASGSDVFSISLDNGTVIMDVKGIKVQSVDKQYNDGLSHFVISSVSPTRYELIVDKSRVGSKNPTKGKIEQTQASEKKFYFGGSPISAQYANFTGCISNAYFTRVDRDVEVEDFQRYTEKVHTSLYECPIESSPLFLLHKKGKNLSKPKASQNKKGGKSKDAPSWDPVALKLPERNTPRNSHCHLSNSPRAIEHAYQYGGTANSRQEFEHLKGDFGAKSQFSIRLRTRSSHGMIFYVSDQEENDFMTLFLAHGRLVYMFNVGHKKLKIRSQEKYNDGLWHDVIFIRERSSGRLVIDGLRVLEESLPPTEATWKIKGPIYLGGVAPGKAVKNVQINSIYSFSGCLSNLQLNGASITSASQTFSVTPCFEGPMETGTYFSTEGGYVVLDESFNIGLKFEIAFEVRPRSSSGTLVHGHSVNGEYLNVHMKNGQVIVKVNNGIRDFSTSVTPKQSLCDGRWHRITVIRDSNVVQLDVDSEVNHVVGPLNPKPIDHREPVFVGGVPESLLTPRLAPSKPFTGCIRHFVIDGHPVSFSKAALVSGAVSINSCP
Excerpt: LGde1 has a full-length G domain (i.e., LG1-5) with LG1 deleted, LGde2 has a full-length G domain with LG2 deleted, and LGde3 has a full-length G domain with LG3 deleted. Recombinant MCAM-Fc protein was able to specifically bind 293 cells expressing LAMA4 variants LG1-5, LG1-3, and LGde 1 (LG23), but not 293 cells expressing LAMA 4 variants LG4-5, LGde2 (LG13), or LGde3 (LG12).

human His-laminin-α4 = target: T2, human His-laminin-α4 (human, UniProt Q16363 833-1823, limits assumed); assay: Biacore SPR
T2 construct: Bought His-tagged recombinant protein (R & D Systems); also called Human LAMA4; human His-laminin-α4 (R & D Systems)
T2 sequence: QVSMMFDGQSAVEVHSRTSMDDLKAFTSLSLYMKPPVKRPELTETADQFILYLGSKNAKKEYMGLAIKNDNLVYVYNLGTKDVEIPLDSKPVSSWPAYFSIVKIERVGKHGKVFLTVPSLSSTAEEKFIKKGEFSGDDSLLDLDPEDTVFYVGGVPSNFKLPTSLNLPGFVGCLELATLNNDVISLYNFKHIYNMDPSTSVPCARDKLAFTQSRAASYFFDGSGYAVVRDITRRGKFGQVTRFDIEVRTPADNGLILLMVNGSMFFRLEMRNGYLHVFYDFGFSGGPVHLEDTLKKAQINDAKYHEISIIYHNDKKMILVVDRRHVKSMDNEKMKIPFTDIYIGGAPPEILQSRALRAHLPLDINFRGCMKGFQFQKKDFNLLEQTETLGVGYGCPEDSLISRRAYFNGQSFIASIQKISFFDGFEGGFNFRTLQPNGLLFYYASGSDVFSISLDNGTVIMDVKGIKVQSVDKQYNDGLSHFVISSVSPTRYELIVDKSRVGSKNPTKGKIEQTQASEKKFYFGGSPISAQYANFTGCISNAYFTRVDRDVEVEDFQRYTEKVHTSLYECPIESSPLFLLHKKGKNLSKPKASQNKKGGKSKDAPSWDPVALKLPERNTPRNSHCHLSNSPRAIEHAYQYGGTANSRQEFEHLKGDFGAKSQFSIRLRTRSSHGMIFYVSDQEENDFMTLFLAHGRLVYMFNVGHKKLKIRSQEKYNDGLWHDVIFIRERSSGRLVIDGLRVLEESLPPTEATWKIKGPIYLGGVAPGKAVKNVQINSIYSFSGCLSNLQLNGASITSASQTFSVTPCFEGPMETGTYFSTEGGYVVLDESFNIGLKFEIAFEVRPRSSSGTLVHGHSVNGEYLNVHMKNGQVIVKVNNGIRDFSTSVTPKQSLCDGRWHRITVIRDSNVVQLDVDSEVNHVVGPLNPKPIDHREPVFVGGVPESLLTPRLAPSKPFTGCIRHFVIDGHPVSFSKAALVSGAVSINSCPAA

mouse His-laminin-α4 = target: T3, mouse His-laminin-α4 (mouse, UniProt P97927 826-1816, limits assumed); assay: Biacore SPR
T3 construct: Bought His-tagged recombinant protein; also called Murine LAMA4; recombinant mouse LAMA4-His
T3 sequence (looked up): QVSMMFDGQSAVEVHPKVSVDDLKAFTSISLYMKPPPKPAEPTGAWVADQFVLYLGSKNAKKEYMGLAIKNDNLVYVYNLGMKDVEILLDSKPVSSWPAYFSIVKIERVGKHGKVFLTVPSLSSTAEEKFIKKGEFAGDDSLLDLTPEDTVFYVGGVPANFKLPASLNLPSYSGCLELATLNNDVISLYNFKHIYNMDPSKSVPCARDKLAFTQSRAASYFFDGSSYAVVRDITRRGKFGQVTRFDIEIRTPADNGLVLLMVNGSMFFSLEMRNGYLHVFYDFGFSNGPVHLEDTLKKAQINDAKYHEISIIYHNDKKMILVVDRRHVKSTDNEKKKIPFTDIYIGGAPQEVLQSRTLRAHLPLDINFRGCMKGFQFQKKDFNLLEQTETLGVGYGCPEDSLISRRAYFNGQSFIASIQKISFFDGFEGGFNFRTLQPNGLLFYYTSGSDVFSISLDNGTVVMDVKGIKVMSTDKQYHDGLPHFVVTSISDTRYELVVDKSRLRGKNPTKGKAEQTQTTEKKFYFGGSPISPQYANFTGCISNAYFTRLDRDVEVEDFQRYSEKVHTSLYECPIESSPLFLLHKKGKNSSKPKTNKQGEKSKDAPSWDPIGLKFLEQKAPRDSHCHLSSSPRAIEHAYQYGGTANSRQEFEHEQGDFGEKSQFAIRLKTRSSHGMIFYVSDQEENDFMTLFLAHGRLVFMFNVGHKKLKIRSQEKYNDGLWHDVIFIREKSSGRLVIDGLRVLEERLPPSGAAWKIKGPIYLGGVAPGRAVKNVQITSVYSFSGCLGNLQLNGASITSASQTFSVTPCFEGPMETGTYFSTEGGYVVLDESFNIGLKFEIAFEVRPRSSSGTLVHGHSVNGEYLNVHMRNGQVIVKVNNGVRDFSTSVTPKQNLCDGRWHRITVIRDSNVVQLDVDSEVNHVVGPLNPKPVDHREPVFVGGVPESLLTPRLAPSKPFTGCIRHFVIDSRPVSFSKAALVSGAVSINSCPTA

[2] = target: T4, human LAMA4 G domain (LG1-5) displayed on 293 cells (human, UniProt Q16363 830-1821); assay: flow cytometry on LAMA4-displaying 293 cells, anti-human-650 secondary antibody; MFI
T4 construct: the vector's tags and membrane anchor are not written here; also called LAMA4-displaying human 293 cells; full length
T4 sequence: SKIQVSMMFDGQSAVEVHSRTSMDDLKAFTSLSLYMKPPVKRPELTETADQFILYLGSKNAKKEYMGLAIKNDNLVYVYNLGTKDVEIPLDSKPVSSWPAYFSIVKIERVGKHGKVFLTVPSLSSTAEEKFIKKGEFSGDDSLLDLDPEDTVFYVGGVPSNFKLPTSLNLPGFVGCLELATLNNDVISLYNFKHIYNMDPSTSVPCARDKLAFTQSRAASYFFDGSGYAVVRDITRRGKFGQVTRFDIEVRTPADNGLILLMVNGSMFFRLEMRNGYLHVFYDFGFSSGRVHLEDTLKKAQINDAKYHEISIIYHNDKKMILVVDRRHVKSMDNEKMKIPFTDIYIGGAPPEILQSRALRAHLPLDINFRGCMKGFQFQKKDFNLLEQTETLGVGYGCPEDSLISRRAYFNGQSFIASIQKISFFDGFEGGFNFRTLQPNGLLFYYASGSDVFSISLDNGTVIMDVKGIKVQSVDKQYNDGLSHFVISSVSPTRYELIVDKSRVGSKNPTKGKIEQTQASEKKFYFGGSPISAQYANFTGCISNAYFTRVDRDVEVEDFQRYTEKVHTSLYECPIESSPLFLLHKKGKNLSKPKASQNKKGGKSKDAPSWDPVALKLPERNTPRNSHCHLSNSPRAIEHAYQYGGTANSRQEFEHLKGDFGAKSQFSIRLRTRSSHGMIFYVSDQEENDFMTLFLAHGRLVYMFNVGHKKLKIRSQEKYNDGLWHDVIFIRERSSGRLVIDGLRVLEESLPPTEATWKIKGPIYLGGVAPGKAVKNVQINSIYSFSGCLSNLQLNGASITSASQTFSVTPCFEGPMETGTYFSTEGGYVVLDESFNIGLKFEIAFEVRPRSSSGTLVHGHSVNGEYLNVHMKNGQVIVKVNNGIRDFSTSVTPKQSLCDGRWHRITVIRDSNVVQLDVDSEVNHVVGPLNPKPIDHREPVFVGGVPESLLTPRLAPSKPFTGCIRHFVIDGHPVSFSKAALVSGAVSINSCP
Procedure: (§1) The 19C12 variants chimeric 19C12, H2L3, H2L4, H2L6, H3L6, and isotype control were tested for their ability to block the binding of LAMA4 to its ligand MCAM (FIG. 15) and to bind LAMA4-displaying cells (FIG. 16). To test LAMA4 binding capacity, serially diluted antibodies were pre-incubated with LAMA4-displaying human 293 cells, followed by anti-human-650 secondary antibody incubation. […] Fluorescent signal was assessed via flow cytometric analyses and plotted as mean fluorescence intensity (MFI). All 19C12 variants retained their MCAM blocking and LAMA4 binding activity when compared with chimeric 19C12.

[3] = target: T5, mouse LAMA4 in mouse tissue (mouse, UniProt P97927 25-1816); assay: staining of WT versus LAMA4.KO mouse brain cryosections, anti-human-594 secondary
T5 construct: Native protein in tissue sections, there part of laminin trimers; also called LAMA4-positive mouse tissue; LAMA4-positive mouse brain vasculature
Excerpt: The specific binding between the 19C12 humanized variants (19C12 chi, H2L3, H2L4, H2L6, H3L6 and isotype control) and LAMA4 was further tested by assessing the variants' ability to stain wild-type vs. LAMA4.KO mouse brains. Humanized monoclonal antibodies against LAMA4 were generated as described in the Materials and Methods. Perfused and fresh frozen WT and LAMA4.KO mouse brains were cryosectioned, acetone-fixed, and stained with LAMA4 primary antibody followed by anti-human-594 secondary antibodies.

recombinant laminin 411 = target: T6, recombinant laminin 411 (human, UniProt P07942 22-1786; P11047 34-1609, limits assumed); assay: flow cytometric blocking assay; antibody pre-incubated with 650-labeled laminin 411; blocked partner: human MCAM on CHO cells; MFI
T6 construct: also called LAMA4 in complex with its gamma1 and beta1 chains
Procedure: as §1
Following two washes with FACS buffer (1% FBS in PBS), cells were resuspended with 650-conjugated anti-pan-laminin antibody (1:1000; Novus Biologicals) and incubated for 20 min at 4° C., and washed again. Cells were analyzed for pan-laminin reactivity by flow cytometry using standard procedures.

T6 sequence (chain, as listed by the source limits assumed, chain 1 of 3): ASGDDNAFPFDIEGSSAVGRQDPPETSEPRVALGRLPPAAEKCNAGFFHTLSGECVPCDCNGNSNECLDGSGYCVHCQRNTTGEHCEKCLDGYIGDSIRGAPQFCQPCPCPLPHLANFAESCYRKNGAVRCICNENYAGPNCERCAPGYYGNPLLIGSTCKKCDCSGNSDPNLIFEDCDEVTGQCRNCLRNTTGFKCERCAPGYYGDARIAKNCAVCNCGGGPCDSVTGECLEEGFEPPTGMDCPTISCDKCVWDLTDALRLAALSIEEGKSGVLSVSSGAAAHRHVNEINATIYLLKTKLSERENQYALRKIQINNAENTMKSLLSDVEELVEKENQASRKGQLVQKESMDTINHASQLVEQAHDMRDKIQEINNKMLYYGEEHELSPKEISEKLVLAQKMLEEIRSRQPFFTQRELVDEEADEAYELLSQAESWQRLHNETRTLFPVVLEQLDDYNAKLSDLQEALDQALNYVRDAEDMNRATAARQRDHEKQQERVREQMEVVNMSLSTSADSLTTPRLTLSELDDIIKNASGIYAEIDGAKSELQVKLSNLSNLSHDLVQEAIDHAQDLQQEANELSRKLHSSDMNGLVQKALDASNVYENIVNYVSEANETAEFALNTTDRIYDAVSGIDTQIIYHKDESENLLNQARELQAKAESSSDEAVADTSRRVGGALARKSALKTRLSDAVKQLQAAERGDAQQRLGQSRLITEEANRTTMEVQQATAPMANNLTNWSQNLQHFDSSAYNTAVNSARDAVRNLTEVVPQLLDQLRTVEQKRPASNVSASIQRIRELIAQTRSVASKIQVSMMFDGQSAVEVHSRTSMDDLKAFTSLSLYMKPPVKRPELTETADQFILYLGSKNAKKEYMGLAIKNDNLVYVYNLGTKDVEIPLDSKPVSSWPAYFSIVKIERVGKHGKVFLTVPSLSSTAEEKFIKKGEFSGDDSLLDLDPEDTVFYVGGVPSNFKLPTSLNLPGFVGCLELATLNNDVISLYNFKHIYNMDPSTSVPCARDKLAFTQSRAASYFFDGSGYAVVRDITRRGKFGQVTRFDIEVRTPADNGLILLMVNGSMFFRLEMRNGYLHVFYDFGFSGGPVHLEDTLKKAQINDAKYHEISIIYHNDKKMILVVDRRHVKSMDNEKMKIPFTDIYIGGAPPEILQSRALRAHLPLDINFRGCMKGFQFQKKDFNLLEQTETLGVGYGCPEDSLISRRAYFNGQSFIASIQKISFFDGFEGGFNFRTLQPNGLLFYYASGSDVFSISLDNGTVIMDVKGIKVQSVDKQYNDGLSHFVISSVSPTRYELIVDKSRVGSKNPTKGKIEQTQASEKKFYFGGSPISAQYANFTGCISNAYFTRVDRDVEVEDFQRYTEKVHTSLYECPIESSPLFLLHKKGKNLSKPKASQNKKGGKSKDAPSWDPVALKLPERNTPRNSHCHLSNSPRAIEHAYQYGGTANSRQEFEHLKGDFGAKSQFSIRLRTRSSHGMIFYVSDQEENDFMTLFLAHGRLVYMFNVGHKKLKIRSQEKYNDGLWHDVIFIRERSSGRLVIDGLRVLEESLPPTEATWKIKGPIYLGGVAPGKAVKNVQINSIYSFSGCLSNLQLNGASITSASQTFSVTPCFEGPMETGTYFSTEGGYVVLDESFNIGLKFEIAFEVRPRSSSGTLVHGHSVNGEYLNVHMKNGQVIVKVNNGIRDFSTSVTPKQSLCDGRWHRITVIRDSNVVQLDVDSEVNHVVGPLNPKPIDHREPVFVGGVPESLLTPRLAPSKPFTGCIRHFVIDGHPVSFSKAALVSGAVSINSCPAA
T6 sequence (P07942 22-1786 limits assumed, chain 2 of 3): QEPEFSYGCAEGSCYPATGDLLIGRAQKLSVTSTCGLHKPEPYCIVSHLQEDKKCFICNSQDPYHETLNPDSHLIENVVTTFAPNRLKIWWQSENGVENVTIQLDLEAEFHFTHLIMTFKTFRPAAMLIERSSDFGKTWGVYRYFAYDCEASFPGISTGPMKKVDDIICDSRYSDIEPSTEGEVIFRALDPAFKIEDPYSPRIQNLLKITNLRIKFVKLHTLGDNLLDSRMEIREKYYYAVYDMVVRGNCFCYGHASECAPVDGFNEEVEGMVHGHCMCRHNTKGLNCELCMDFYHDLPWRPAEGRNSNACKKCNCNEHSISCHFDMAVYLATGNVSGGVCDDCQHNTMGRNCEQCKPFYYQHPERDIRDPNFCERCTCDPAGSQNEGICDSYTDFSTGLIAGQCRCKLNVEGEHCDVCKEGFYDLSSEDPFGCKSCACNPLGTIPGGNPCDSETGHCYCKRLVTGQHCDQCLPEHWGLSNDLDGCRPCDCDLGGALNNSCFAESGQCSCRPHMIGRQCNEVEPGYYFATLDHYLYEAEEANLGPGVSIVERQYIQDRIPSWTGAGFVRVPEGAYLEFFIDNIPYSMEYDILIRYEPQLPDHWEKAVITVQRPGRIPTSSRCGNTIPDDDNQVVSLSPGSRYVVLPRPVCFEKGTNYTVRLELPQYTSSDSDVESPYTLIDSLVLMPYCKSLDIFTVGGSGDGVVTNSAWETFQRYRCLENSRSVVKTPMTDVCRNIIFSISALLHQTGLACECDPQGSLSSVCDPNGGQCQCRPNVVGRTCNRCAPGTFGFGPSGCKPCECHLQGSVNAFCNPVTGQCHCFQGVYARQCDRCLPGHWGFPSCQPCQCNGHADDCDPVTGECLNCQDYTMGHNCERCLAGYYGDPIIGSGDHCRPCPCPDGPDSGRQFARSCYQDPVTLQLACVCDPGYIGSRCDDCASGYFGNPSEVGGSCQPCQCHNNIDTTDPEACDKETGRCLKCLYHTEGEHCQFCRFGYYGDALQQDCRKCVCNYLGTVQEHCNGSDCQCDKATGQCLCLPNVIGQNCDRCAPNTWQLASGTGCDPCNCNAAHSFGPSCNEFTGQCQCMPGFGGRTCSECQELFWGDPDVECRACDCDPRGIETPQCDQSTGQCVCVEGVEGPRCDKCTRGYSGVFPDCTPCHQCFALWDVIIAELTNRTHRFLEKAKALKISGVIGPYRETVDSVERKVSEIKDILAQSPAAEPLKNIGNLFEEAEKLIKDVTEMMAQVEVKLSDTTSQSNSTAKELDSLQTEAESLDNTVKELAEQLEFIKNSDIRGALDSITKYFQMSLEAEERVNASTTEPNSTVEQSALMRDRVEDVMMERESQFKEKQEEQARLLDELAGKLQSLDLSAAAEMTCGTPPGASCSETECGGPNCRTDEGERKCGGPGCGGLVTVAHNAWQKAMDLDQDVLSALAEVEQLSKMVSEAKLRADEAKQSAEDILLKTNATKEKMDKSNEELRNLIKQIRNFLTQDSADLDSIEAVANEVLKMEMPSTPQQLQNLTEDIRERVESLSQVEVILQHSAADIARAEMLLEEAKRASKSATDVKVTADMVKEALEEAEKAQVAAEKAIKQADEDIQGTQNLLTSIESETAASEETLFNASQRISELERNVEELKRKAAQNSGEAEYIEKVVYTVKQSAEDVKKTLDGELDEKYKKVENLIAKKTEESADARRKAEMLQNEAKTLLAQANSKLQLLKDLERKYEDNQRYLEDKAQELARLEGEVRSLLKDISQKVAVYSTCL
T6 sequence (P11047 34-1609 limits assumed, chain 3 of 3): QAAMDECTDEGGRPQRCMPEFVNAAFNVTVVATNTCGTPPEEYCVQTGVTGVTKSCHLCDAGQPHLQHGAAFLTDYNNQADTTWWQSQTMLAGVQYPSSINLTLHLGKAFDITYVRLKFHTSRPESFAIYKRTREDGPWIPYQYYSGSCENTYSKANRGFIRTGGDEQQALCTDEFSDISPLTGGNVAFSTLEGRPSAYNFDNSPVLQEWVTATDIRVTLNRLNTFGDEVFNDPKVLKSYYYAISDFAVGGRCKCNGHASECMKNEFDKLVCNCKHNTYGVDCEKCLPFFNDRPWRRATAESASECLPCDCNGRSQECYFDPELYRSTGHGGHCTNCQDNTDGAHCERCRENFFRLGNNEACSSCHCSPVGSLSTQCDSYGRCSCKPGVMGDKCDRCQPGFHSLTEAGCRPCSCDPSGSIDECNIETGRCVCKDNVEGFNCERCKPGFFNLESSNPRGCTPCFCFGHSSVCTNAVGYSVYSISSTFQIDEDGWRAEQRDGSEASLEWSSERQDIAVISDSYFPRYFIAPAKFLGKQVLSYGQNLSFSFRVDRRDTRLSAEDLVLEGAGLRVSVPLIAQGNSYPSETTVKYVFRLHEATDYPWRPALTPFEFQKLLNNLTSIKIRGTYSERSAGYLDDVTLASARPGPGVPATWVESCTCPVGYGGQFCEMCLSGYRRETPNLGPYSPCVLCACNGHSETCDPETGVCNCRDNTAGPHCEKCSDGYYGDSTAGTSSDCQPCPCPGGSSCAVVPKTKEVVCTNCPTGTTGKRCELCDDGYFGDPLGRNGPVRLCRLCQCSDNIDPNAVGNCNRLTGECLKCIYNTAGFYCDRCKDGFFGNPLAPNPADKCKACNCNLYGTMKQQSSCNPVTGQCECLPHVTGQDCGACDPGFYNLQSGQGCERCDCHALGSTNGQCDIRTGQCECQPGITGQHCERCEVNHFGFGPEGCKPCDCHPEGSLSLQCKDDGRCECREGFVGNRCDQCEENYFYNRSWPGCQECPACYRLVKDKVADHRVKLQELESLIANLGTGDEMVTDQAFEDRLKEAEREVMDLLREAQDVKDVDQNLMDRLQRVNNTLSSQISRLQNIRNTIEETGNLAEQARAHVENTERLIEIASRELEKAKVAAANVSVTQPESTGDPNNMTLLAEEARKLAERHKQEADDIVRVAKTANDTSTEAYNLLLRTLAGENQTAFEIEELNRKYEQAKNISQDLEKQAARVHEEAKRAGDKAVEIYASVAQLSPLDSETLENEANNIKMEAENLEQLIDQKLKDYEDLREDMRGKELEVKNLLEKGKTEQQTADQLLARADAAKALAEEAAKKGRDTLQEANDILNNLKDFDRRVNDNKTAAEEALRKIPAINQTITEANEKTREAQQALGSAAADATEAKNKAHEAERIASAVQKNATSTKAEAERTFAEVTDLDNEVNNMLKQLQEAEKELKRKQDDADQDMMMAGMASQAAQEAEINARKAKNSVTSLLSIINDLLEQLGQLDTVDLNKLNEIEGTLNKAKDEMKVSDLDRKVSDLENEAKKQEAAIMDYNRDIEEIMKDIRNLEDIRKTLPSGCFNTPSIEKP

Row | binding result [1] | Kd (human His-laminin-α4) [nM] | koff (human His-laminin-α4) [s⁻¹] | kon (human His-laminin-α4) [M⁻¹ s⁻¹] | Kd (mouse His-laminin-α4) [nM] | koff (mouse His-laminin-α4) [s⁻¹] | kon (mouse His-laminin-α4) [M⁻¹ s⁻¹] | binding result [2] | binding result [3] | binding result (recombinant laminin 411) | Binder
1 | no binding | 7.33 | 0.0105 | 1.43e+06 | 5.27 | 0.0116 | 2.2e+06 | – | – | – | B1
2 | – | – | – | – | – | – | – | binds | binds | binds | B2
3 | – | – | – | – | – | – | – | binds | binds | binds | B3
4 | – | – | – | – | – | – | – | binds | binds | binds | B4
5 | – | – | – | – | – | – | – | binds | binds | binds | B5
